Experimental data: US20190127468A1
“And” between values parts separate entries of the source, which are not always exact repeats. Equal values may be shown once.

Columns and labels:
mouse CTLA4-Fc (mouse) [1] = molecular target: mouse CTLA4-Fc (mouse) (UniProt P09793); test: ELISA on coated target; binder 100 ng/ml
[2] = molecular target: human CTLA-4Fc mutant protein M11 (human); test: ELISA on coated target; binder 100 ng/ml
mouse CTLA4-Fc (mouse) [3] = molecular target: mouse CTLA4-Fc (mouse) (UniProt P09793); test: ELISA on coated target; binder 10 ng/ml
[4] = molecular target: human CTLA-4Fc mutant protein M11 (human); test: ELISA on coated target; binder 10 ng/ml
mouse CTLA4-Fc (mouse) [5] = molecular target: mouse CTLA4-Fc (mouse) (UniProt P09793); test: ELISA on coated target; binder 1000 ng/ml
[6] = molecular target: human CTLA-4Fc mutant protein M11 (human); test: ELISA on coated target; binder 1000 ng/ml
mouse CTLA4-Fc (mouse) [7] = molecular target: mouse CTLA4-Fc (mouse) (UniProt P09793); test: ELISA on coated target; binder 0 (background)
[8] = molecular target: human CTLA-4Fc mutant protein M11 (human); test: ELISA on coated target; binder 0 (background)
[9] = molecular target: mouse CTLA4-Fc fusion protein (mouse) (UniProt P09793); test: ELISA, binding to plate-bound mouse CTLA4-Fc

human CTLA-4Fc mutant protein M11 (human), sequence (chain, as listed by the source mutant limits assumed): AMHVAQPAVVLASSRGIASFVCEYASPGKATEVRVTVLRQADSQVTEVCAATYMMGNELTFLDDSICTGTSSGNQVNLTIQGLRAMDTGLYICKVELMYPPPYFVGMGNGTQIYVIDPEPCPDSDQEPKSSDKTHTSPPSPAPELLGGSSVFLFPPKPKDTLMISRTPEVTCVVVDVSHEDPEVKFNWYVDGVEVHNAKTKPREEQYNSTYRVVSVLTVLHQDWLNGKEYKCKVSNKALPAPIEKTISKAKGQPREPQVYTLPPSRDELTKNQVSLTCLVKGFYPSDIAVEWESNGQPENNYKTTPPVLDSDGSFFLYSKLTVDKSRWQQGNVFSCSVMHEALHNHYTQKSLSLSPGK

| OD450 (mouse CTLA4-Fc (mouse) [1]) | OD450 [2] | OD450 (mouse CTLA4-Fc (mouse) [3]) | OD450 [4] | OD450 (mouse CTLA4-Fc (mouse) [5]) | OD450 [6] | OD450 (mouse CTLA4-Fc (mouse) [7]) | OD450 [8] | EC50 (read off the curve) [9] [mg/L] | Binder |
| --- | --- | --- | --- | --- | --- | --- | --- | --- | --- |
| 0.303 OD and 0.314 OD | 0.752 OD and 0.746 OD | 0.201 OD and 0.18 OD | 0.19 OD and 0.194 OD | 0.942 OD and 0.94 OD | 2.89 OD and 2.91 OD | 0.19 OD and 0.189 OD | 0.171 OD and 0.155 OD | – | chimeric L3D10 antibody (antibody, V domains shown, biotinylated (sites not given)) VH: QVQLKESGPGLVAPSQSLSITCTVSGFSLTSYGLSWVRQPPGKGLEWLGVIWYDGNTNFHSALISRLTISKDNSKSQVFLELNSLQTDDTATYYCAKTEGHYYGSNYGYYALDYWGQGTSVTVSS VL: DIQMTQSPASLSVSVGETVTITCRASENIYSNLAWYQQKQGKSPQLLVYAATNLADGVPSRFSGSGSGTQYSLKINSLQSEDFGTYFCQHLWGTPYTFGGGTKLEIKR |
| – | – | – | – | – | – | – | – | 1 | anti-mouse CTLA4 mAb 9H10 (antibody, from another filing) scFv: YPYDVPDYAGAQPARSDIVMTQSPSSLAVSVGEKVTISCKSSQSLLYGSSHYLAWYQQKVGQSPKLLIYWASTRHTGIPDRFIGSGSGTDFTLSLSSVQAEDMADYFCQQYFSTPWTFGAGTRVEIKSGSGGGSGGGSGGGSQVQLLQSESELVKPGASVKLSCKTSGYTFTDYYIHWVKQKPGQGLEWIGLINPNNDGTNYNQKFQGKATLTADKSSSTAYMELNSLTFDDSVIYFCARASSRLRMARTTSDYYAMDYWGQGIQVTVSSVDSSGSGGCKPCICTVPEVSSVFIFPPKPKDVLTITLTPKVTCVVVDISKDDPEVQFSWFVDDVEVHTAQTQPREEQFNSTFRSVSELPIMHQDWLNGKEFKCRVNSAAFPAPIEKTISKTKGRPKAPQVYTIPPPKEQMAKDKVSLTCMITDFFPEDITVEWQWNGQPAENYKNTQPIMDTDGSYFVYSKLNVQKSNWEAGNTFTCSVLHEGLHNHHTEKSLSHSPGK |
